Measurements taken from patent US11254720B2, “Methods and systems for designing and/or characterizing soluble lipidated ligand agents” (Tufts Medical Center, priority 2013, dated 2022).

Key:
CCK1R = target: T1, CCK1R (Homo sapiens, UniProt P32238); assay: SRE-luciferase agonist assay in transfected HEK293 cells; format: cell-based; details: tethered ligand cDNA cotransfected, 24 hours
T1 construct: expressed in transfected cells; host or cells: HEK293
T1 sequence (P32238 1-428): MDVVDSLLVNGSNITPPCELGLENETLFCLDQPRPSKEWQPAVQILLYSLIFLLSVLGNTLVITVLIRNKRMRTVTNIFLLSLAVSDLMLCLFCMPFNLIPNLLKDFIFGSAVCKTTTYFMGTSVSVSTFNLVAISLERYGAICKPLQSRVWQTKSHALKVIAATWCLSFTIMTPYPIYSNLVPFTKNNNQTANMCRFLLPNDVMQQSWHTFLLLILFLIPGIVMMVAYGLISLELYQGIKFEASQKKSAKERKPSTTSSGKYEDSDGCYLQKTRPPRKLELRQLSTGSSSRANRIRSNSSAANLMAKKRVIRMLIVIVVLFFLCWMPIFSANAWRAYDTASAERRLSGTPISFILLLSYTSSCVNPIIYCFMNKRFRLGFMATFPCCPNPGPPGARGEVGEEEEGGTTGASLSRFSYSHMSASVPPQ
Method: (§1) A) Tethered CCK4-Gly activates the CCK2 receptor (left panel). Potency of the corresponding soluble lipidated ligand agent (1-CCK4-Gly) exceeds that of soluble CCK-4-Gly (right panel). […] HEK293 cells were transiently cotransfected with cDNAs encoding: the designated CCK receptor subtype, a 5X-SRE-Luc-pest reporter gene (pGL4.33), tethered ligand (as indicated) and a β-galactosidase gene to control for transfection efficiency. Tethered ligand activity was measured 24 hours following transfection. To assess activity of soluble and lipidated CCK-4-Gly, cells were stimulated for 4 hours with ligand. Both soluble and tethered ligand activity was quantified relative to a parallel preparation of CCK receptor expressing cells stimulated for 4 hours with soluble amidated CCK-4 (s-CCK4-NH2, 10 μM) for CCK-2R and soluble amidated CCK-8 (s-CCK8-NH2, 10 μM) for CCK-1R.
(§2) Neurokinin receptors were purchased from the Missouri S+T cDNA Resource center. […] The nucleotide sequences of all receptor coding regions and tethered ligands were confirmed by automated DNA sequencing and analyzed using Vector NTI software (Invitrogen).

CCK2R = target: T2, CCK2R (Homo sapiens, UniProt P32239); assay: as above; format: cell-based; details: tethered ligand cDNA cotransfected, 24 hours
T2 construct: expressed in transfected cells; host or cells: HEK293
T2 sequence (P32239 1-447): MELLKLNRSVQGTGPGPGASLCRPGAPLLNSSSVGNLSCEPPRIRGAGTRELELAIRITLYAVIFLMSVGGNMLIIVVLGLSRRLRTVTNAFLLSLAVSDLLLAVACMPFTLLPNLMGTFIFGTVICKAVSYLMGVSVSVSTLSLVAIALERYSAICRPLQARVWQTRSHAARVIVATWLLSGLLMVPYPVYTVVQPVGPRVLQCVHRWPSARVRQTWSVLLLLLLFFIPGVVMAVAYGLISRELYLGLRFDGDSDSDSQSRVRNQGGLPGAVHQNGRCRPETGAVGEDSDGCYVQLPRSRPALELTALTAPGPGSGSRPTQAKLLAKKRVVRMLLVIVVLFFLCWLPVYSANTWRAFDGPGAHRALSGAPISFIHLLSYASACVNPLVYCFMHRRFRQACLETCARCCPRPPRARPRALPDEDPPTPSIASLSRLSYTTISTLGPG
Method: as §1, §2

tCCK4-Gly: membrane-tethered glycine extended CCK4 (WMDFG) (chain (part 1 of 2) MSTSMIRDVELAEEALPKKTGGPQGSRRCLFSLFIVAGATTLFCLLHFGVI; left off: small tags and cut ends)
Activity of membrane-tethered ligand at CCK1R (CCK1R): no activity
Activity of membrane-tethered ligand at CCK2R (CCK2R): activated the CCK2R in a concentration dependent manner
